Measured values published in a protein production outcome set (Wang et al. 2014).

Assay: label from the status in PepcDB records

Row | Sequence | protein production
1 | MAPDNDHFLDSPSPPLLEMRHHQSATENGGGCGEIVEVQGGHIVRSTGRKDRHSKVCTAKGPRDRRVRLSAPTAIQFYDVQDRLGFDRPSKAVDWLITKAKSAIDDLAQLPPWNPADTLRQHAAAAANAKPRKTKTLISPPPPQPEETEHHRIGEEEDNESSFLPASMDSDSIADTIKSFFPVASTQQSYHHQPPSRGNTQNQDLLRLSLQSFQNGPPFPNQTEPALFSGQSNNQLAFDSSTASWEQSHQSPEFGKIQRLVSWNNVGAAESAGSTGGFVFASPSSLHPVYSQSQLLSQRGPLQSINTPMIRAWFDPHHHHHHHQQSMTTDDLHHHHPYHIPPGIHQSAIPGIAFASSGEFSGFRIPARFQGEQEEHGGDNKPSSASSDSRH | failed
2 | MVFTLADSVSQVALGPSWLDPMELLSGSGPFGSFILPAMLAIVFIESGLLFPLLPGDSLLFTGGLLANQADPFAPLWLVLILCPIAAILGDQVGYWIGHKFHPRLVNRPDGRIFKQEYLKQTEDFFEKHGPVTIILCRFVPIVRTYAPLVAGMAGMRYRTFIIYNMIGGILWGSGVVALGAALGQFDFVRNNIDLIFLLIVFISVVPGLVGMARKLADGHKQANTEPQENPAVQTAPVKTQEAQEAPQN | failed
3 | MSTTALVGTGHRPTIVLVGHGMVGQRFLEALAERGLTATHRVVVLCEEPRPAYDRVQLTSYFSGTTPDELSMTDAEFITEHGIDLRLGDPAETVDREARTVTARSGLVIAYDTLVLATGSYPFVPPVPGKDAEGCFVYRTIEDLLAIEAYAKSRATTGAVVGGGLLGLEAAGALKGLGLTSHIVEFAPRLMPVQVDAGGGAALLRTIEDMGLTVHTGTGTQEIVTGDDGAVTGMKLSDGSELATDLVVFSAGVRPRDQLARDCGLPVGERGGIAVDAQCRTEDPHVFAIGECALAADGRVYGLVAPGYEMAETAAATIASADSSFTGADLSTKLKLLGVDVASFGDAHGATAGCLDVVYADSRSGTYKKLVIGRDGELLGGILVGDADAYGTLRALTGSVPPVSPEQLVLPAGGGGGVALGPSALPDSAVICSCHNVTKGAIRGAVTEHSCTTLPEVKKCTKAGTGCGSCVKVLGQLVNDELTASGVEVDHGLCGCFTQTREELYEIVLALRITSYRSLLDRYGREGARGGDGCEVCKPTVGSIIASLAPTIGANGYVLDGEQSALQDTNDHFLANLQKNGSYSIVPRIPGGEITPEKLIVIGEVARDFGLYTKITGGQRIDLFGARVEQLPLIWTRLVDAGFESGHAYGKSLRTVKSCVGQSWCRYGVQDSVRMAIDLELRYRGLRSPHKLKSAVSGCARECAEAQSKDFGIIATANGWNLYVGGNGGATPRHADLLAQDLSDAELVRLIDRFLMFYIRTADRLERTSVWLERIPGGLDHIRDVVVHDSLGICEELESLMTAHVANYRDEWTETINDPEKLARFVSFVNAPDTPDPVVGFVPERDQIKPDLPLLTIGHRPLEGSAQR | failed
4 | MALANFIDRAATAASQVLADFHLEDFKAALEKQVVAVAFDDQAASCAEGQATLDLAVRLLARLYPVLAILPLGSAASFQAQALERLAKSINPKVGIRRSGKSATICVVAGVTRPPLRCPTFFMGSDGWAAKLSRTDPVGSGSSLLPYGAGAASCFGAANVFRTIFAAQLTGAELDETIDLSLYSYDKTKAGEAGPIDIPVDLGETHLVGLGAIGHGSLWALARQPGLTGRLHVIDHEAIELSNLQRYVLAGQAEIGMSKAVLAATALRSTAIGVEAHPLTWAEYVARHGDWVFDRVGVALDTAADRLAVQGALPRWIANAWTQEHDLGISRHGFDDGQACLCCMYLPSGKSKDEHHLIAEELGIPEAHEQVKTLLQTNAGVPNDFVVRVATAMAVPFEPLAPFVGQPLRSFYQQAICGGLVFQLSDGSRRVRTVVPMAFQSALAGIMLAAELVKHSAGFPVGPTTSTRVNLLRPLGSRLHDPKAKDSSGRCICSDDDFIAAYRRKYGKSIVQLSDVSAA | failed
5 | MTAWSLLHVGVFASVVMVVGWLWQRRSGNAGPVDVLWAGCLALAAPYCAWMADGALLPRALVAVLGGVWGARLALHLGVRVFGDPHEDGRYRALREHWNGSQGKFLGFFLAQAVVVVLFAVPFLAAASNPHAEWSAWTGIAIVVWLIAVGGEALADRQLSAHKANPANRGKTCRTGLWRYSRHPNYFFEFVHWFAYLALAVGAGPWPVALCALGPVVMFVFLYRFTGIPYTEQQALRSRGEDYAQYQRSTSAFFPLPPSS | failed
6 | SKAWLHQYSVVGRKIPTQEEPEPPIYRLKIFAPNVVNAKSRFWYFLRKLKRVKKSSGEILNISEIFEKKSTQVKNYGIWIRYKSRSDTINMYREYRDVTVNGAVEQMYKDMSGRHRARWSSIWVLKAMPVAAKDCRRSKVTQFHDSKIKFALPHMRPRAPLKKYNTPFKAKRPTTIVQ | not failed
7 | MSLRGSQLGTSRGLMLGGIDLAPVLMVLGLLLSGLGLSMLAPALVDLVVENRDWRAFLGSSVITLFCGMMLTLANWRMPLRFNIRQGFLMTALAWLTMSLFGSMPFMLATTGLDFAGAFFESVSGLTTTGATVISGLEHQPPGILFWRCLLHWIGGIGIIGMAIALLPALRVGGMQLFRTESSDTSEKGMNRIGELGLAITAVYLTLTVVIALGYIAVGMSVFDAICHAFGTVSTGGFSNWDTSLGHLDAAGLWMSTVGMMLGAMPFVLYVQVARGRPMDVVRDPQVQALTGFLVACWLVMALWQSLENGRPFLDALTASAFNITSVVTTTGYASEDYTLWGGFPQLFFFMITFAGGCTGSTSGGIKMFRYQVAYKVLSANIRRRYMPNAVIVSTYGGRAIDEDVAVSVVLFFFATGATTAIIALALTMVGLDWVTALTGTAAAIANVGPGLGTIVGPAGNYATLPDSAKWLLSLAMLMGRLEFFTLLVLFSRDFWKS | failed
8 | MIDLILAIIILVSALLGLLRGFVSIIISTSSWLLASWATFEFGNTASHWLASHGIPSTTEILCGYALVFIGTLMTVGAVGMLMHAGINAIRLNNIDRIFGFALGTFRGGFIACLLLLMIGYTPLAHEPVWRNSRLVPLLQPGVSWMRAKLPQRSSPLTPQRLPLTRPMINRMGSINISVSDDNQLISRVFPPLSSNEHDKSHYVPVQPIIYKPTTTY | failed
9 | MNAYYLLAIAVCAEVIATTSMKAVKGLSTPLPLILLITGYAIAFWMLILVMRTIPVGITYAIWSGMGIVMVSVAAYFIYGQKLDLPALLGMGMIVAGVAVIQLFSKTAGH | failed
10 | MYELYTLLAEYYDTIYRRRIERVKAEIDFVEEIFKEDAKREVRRVLDLACGTGIPTLELAERGYEVVGLDLHEEMLRVARRKAKERNLKIEFLQGDVLEIAFKNEFDAVTMFFSTIMYFDEEDLRKLFSKVAEALKPGGVFITDFPCWFYGGRDGPVVWNEQKGEEKLVIMDWREVEPAVQKLRFKRLVQILRPNGEVKAFLVDDELNIYTPREVRLLAEKYFEKVKIYGNLKRELSPNDMRYWIVGIAKSF | not failed
11 | MKFVQERRLTVKTTFSKEYKIFIFGLLISRIGDSLYTFALPWIAYQLTGSAVIMGSLFAVNVLPIVLFGPLVGVLVDRYDRKKLLWMADIINIILVSLVPILHALHLLEVWHLYVITFILAVMSMLFDVTTVTVIPHIAGASLTKANSLYQMVNQLASLFGPIIAGLFISFIGGFQVLWINVLSFIATLIAVIILPSMKNLNKKNTDKKTLQNVLNDLFDGFKWLINDRLNIALSLQAMVGNFGASAVLGVLMYYLLSTLNLTSAQSGYNYTLIGIGGLLGSLIAVPLEKKFRRGILIPLLLFFGALGLTFALWSTYWLAPGIAFGIAMTCNITWNTIVTSIRQETVPSNLQGRVLGFSRVLTRLSMPLGALVGGIISAYNPVFIFALAAFTKIIEVFIALCSPIRKL | failed
